Measurements reported in patent publication US20260015398A1.

Molecular target: strepII-flag-PLXA fusion protein displayed on engineered extracellular vesicles (strepII-flag-PLXA-EV) (Homo sapiens (Human)) (UniProt Q9UIW2)
Assay: in vitro co-incubation of EVs with FITC-streptactin (10000:1), nanoflow cytometry, share of FITC-positive EVs

Sequence of UniProt Q9UIW2 (Q9UIW2 863-1316 limits assumed, change not shown): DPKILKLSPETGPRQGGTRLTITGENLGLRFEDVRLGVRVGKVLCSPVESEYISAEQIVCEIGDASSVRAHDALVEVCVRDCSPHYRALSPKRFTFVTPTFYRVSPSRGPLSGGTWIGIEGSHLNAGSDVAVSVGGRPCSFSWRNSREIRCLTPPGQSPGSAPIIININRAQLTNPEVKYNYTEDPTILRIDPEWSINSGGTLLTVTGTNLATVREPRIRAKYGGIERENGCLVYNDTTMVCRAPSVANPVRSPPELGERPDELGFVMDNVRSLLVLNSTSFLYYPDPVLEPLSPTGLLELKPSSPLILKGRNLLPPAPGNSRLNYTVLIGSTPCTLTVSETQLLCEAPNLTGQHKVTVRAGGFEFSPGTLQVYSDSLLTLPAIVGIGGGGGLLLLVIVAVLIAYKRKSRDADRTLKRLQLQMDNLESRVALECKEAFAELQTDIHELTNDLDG

FITC-streptactin was tested, and the positive rate was 73%.
